Assays:
[1] = molecular target: human Toll-like receptor 8 with the RQSYA motif deleted (human) (UniProt Q9NR97); experiment: immunoblot of cell lysate
[2] = molecular target: the molecule itself; experiment: immunoblot of cell lysate

human Toll-like receptor 8 with the RQSYA motif deleted (from UniProt Q9NR97-1 27-1041)
stoichiometry N [1]: 2

B1: human Toll-like receptor 8, wild type (receptor, UniProt Q9NR97-1 27-1041, looked up)
chain: EENFSRSYPCDEKKQNDSVIAECSNRRLQEVPQTVGKYVTELDLSDNFITHITNESFQGLQNLTKINLNHNPNVQHQNGNPGIQSNGLNITDGAFLNLKNLRELLLEDNQLPQIPSGLPESLTELSLIQNNIYNITKEGISRLINLKNLYLAWNCYFNKVCEKTNIEDGVFETLTNLELLSLSFNSLSHVPPKLPSSLRKLFLSNTQIKYISEEDFKGLINLTLLDLSGNCPRCFNAPFPCVPCDGGASINIDRFAFQNLTQLRYLNLSSTSLRKINAAWFKNMPHLKVLDLEFNYLVGEIASGAFLTMLPRLEILDLSFNYIKGSYPQHINISRNFSKLLSLRALHLRGYVFQELREDDFQPLMQLPNLSTINLGINFIKQIDFKLFQNFSNLEIIYLSENRISPLVKDTRQSYANSSSFQRHIRKRRSTDFEFDPHSNFYHFTRPLIKPQCAAYGKALDLSLNSIFFIGPNQFENLPDIACLNLSANSNAQVLSGTEFSAIPHVKYLDLTNNRLDFDNASALTELSDLEVLDLSYNSHYFRIAGVTHHLEFIQNFTNLKVLNLSHNNIYTLTDKYNLESKSLVELVFSGNRLDILWNDDDNRYISIFKGLKNLTRLDLSLNRLKHIPNEAFLNLPASLTELHINDNMLKFFNWTLLQQFPRLELLDLRGNKLLFLTDSLSDFTSSLRTLLLSHNRISHLPSGFLSEVSSLKHLDLSSNLLKTINKSALETKTTTKLSMLELHGNPFECTCDIGDFRRWMDEHLNVKIPRLVDVICASPGDQRGKSIVSLELTTCVSDVTAVILFFFTFFITTMVMLAALAHHLFYWDVWFIYNVCLAKVKGYRSLSTSQTFYDAYISYDTKDASVTDWVINELRYHLEESRDKNVLLCLEERDWDPGLAIIDNLMQSINQSKKTVFVLTKKYAKSWNFKTAFYLALQRLMDENMDVIIFILLEPVLQHSQYLRLRQRICKSSILQWPDNPKAEGLFWQTLRNVVLTENDSRYNNMYVDSIKQY
stoichiometry N [2]: 2
